T1: His/Avi-CynoIL18BP (recombinant cynomolgus IL-18BP with His and Avi tags) (cynomolgus monkey)
T1 chain: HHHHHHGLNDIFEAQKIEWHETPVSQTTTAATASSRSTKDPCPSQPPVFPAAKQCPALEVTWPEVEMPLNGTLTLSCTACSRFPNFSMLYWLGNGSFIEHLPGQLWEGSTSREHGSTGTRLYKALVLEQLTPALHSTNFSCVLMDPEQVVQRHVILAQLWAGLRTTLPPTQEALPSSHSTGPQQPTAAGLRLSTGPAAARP

T2: Avi/His-HuIL18BPa (recombinant human IL-18BP isoform A with Avi and poly-His tags) (human, biotinylated with BirA on the Avi tag in some assays)
T2 chain: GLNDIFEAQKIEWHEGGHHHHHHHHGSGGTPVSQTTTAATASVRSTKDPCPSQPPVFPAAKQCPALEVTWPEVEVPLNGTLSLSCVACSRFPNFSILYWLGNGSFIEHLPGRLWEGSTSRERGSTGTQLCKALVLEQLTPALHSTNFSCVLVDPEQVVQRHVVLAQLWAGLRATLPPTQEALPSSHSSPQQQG

T3: Avi/HisMsIL18BPd (recombinant mouse IL-18BP with Avi and poly-His tags) (mouse, biotinylated with BirA on the Avi tag in some assays)
T3 chain: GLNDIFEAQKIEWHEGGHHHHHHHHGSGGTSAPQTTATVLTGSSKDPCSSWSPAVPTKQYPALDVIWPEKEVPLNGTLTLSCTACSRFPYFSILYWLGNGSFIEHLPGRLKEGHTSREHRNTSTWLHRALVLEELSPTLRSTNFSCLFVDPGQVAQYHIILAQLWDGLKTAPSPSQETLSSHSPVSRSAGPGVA

T4: mouse IL-18BPd-human IgG Fc (R&D Systems, Cat. #122-BP-100) (mouse; human, UniProt Q9Z0M9 29-193)
T4 construct: Bought; also called mouse IL-18BPd-Fc Chimera
T4 sequence (looked up): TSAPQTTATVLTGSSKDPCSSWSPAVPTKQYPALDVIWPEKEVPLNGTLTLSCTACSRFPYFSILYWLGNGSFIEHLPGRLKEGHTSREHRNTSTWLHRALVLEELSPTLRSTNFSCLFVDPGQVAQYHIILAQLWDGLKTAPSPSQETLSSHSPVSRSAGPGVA

T5: Avi/HisMsIL18BPd (recombinant mouse IL-18BP with Avi and poly-His tags) (mouse)
T5 sequence (chain, biotinylated with BirA on the Avi tag in some assays): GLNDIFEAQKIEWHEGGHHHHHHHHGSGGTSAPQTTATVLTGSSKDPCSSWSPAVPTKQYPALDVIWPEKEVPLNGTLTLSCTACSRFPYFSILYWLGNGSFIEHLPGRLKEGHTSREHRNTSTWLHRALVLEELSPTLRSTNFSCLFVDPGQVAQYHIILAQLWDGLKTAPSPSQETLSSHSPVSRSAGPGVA


How the values were obtained:
[1] = target: T1, His/Avi-CynoIL18BP (recombinant …); experiment: cell-based or functional assay
[2] = target: T2, Avi/His-HuIL18BPa (recombinant human …); experiment: cell-based or functional assay
[3] = target: T3, Avi/HisMsIL18BPd (recombinant mouse …); experiment: cell-based or functional assay
[4] = target: T2, Avi/His-HuIL18BPa (recombinant human …); experiment: ELISA, coated IL-18BP
[5] = target: T1, His/Avi-CynoIL18BP (recombinant …); experiment: ELISA, coated IL-18BP
[6] = target: T3, Avi/HisMsIL18BPd (recombinant mouse …); experiment: ELISA, coated IL-18BP
[7] = target: T1, His/Avi-CynoIL18BP (recombinant …); experiment: blocking ELISA, competitor rhesus IL-18
[8] = target: T3, Avi/HisMsIL18BPd (recombinant mouse …); experiment: SPR, qualitative
[9] = target: T4, mouse IL-18BPd-human IgG Fc (R&D …); experiment: blocking ELISA, competitor mouse IL-18
[10] = target: T2, Avi/His-HuIL18BPa (recombinant human …); experiment: blocking ELISA, competitor human IL-18
[11] = target: T2, Avi/His-HuIL18BPa (recombinant human …); experiment: SPR Carterra LSA, IgG immobilized
[12] = target: T1, His/Avi-CynoIL18BP (recombinant …); experiment: SPR Carterra LSA, IgG immobilized
[13] = target: T5, Avi/HisMsIL18BPd (recombinant mouse IL-18BP with Avi and poly-His tags) (mouse); experiment: cell-based or functional assay
[14] = target: T5, Avi/HisMsIL18BPd (recombinant mouse IL-18BP with Avi and poly-His tags) (mouse); experiment: ELISA, coated IL-18BP
[15] = target: T2, Avi/His-HuIL18BPa (recombinant human …); experiment: SPR Biacore T200, IgG captured on Protein A/G
[16] = target: T1, His/Avi-CynoIL18BP (recombinant …); experiment: SPR Biacore T200, IgG captured on Protein A/G
[17] = target: T1, His/Avi-CynoIL18BP (recombinant …); experiment: SPR Carterra LSA, IgG immobilized; WB = weak binding with KD > 1 µM

Row | Binder | % of Max Gamma, human NK cells [1] [%] | EC50 of IFNγ release, human NK cells [1] [nM] | EC50 of IFNγ release, human PBMC [2] [nM] | Fold change of IFNγ at 10 µg/ml vs baseline, human PBMC [2] [fold] | Fold change of IFNγ at 10 µg/ml vs baseline, mouse splenocytes [3] [fold] | ELISA binding ratio (fold-change over background) [4] [fold over background] | ELISA binding ratio (fold-change over background) [5] [fold over background] | ELISA binding ratio (fold-change over background) [6] [fold over background] | blocking ELISA signal normalized to isotype control (=1) [7] | binding result [8] | blocking ELISA signal normalized to isotype control (=1) [9] | blocking ELISA signal normalized to isotype control (=1) [10] | Kd [11] [nM] | Kd [12] [nM] | Fold change of IFNγ at 10 µg/ml vs baseline, mouse splenocytes [13] [fold] | ELISA binding ratio (fold-change over background) (fold over background) [14] | EC50 of IFNγ release, mouse splenocytes [3] [nM] | Kd [15] [nM] | Kd [16] [nM] | Kd [17] [nM]
1 | anti-IL18BP antibody BP-06 (antibody, human IgG1, V domains shown) VH: QIQLQQSGPELVKPGASVKISCKASGYTFTDYYLNWVKQTPGQGLEWIGWIYPGSGNTKYTEKFKDKASLTVDTSSNTAYMQLSSLTSDDTAVYFCARRGVAWFAYWGQGTLVTVSA VL: DIKMTQSPSSIYASLGERVTITCKASQDINSYLSWFQQKPGKSPKTLIHRANRLVDGVPSRFSGSGSGQDYSLTISSLEYEDMGIYYCLQHDDFPPTFGAGTNLELK | 75.8 | 8.07 | 1.23 | 10.9 | 1.11 | 42.1 | 44.3 | 1.2 | 0.378 ratio to isotype control | no binding | 0.971 ratio to isotype control | 0.174 ratio to isotype control |  |  |  |  |  |  |  | 
2 | anti-IL18BP antibody BP-08 (antibody, human IgG1, V domains shown) VH: QVQLQQPGAELVKPGASVKLSCKVSGYTFTSYWMHWVKQRPGQGLEWIGMIDPNSDSSRYNEKFKNRATLTADKSSSTAFMQFSSLTSEDSAVYYCARSRLGQDYWGQGTTLTVSS VL: DIVMTQSHKFMSTSVGDRVSITCKASQDVSTAVAWYQQKPGQSPKLLIYWASTRHTGVPDRFTGSESGTDYTLIISSVQAEDLALYYCQQHFSTPYTFGGGTKLEIK | 58.4 | 19.2 | 2.01 | 5.19 |  | 38.8 | 41.5 |  | 0.478 ratio to isotype control |  |  | 0.133 ratio to isotype control | 6.9 | 41.4 | 0.75 | 35 |  |  |  | 
3 | anti-IL18BP antibody BP-16 (antibody, human IgG1, V domains shown) VH: QVQLVQSGAEVKKPGASVKVSCKASGYTFTTYDINWVRQAPGQGLEWMGIIGSYGGATSYAQKFQGRVTMTRDTSTSTVYMELSSLRSEDTAVYYCATAEEELRFDYWGQGTLVTVSS VL: DIQMTQSPSSLSASVGDRVTITCRASQSISSYLNWYQQKPGKAPKLLIYKASTLHNGVPSRFSGSGSGTDFTLTISNLQPEDFATYYCQQAISFPLTFGGGTKVEIK | 51.6 | 8.4 | 1.66 | 238 | 11.9 | 23.6 | 25.1 | 22.1 |  |  |  |  |  |  |  |  | 3.08 | < 0.003 | 11.8 | 
4 | anti-IL18BP antibody BP-11 (antibody, human IgG1, V domains shown) VH: QVQLQQSGAELAKPGASVKMSCKASGYTFTNYWMHWVKQRPGQGLEWIGHIDPSTGYTEYNQKFKDKATLTADKSSSTAYMQLSSLTSEDSAVYYCARGLGGLFGYWGQGTLVTVSA VL: DIQMTQSPSSLSASLGGKVTITCKASQDINKFIAWYQHKPGKGPRLLIHHTSTLMPGIPSRFSGSGSGREYSFSISNLEPEDIATYYCLQYDNLLWTFGGGTKLEIR | 100 | 37.1 | 4.25 | 9.72 | 2.75 | 44.4 | 47.6 | 43.6 | 0.49 ratio to isotype control |  | 0.14 ratio to isotype control | 0.089 ratio to isotype control |  |  |  |  | 7 | 2.9 | 1 | 
5 | anti-IL18BP antibody BP-02 (antibody, human IgG1, V domains shown) VH: EVQLQQSGPELVKPGASVKIPCKASGYTFTDYNMDWVKQSHGKSLEWIGNINTNNGGTVYNQKFKGKATLTVDKSSSTAYMELRSLTSEDTAVYYCARSDTTVVASRYYAMDYWGQGTSVTVSL VL: DIVLTQSPASLAMSLGKRATISCRASESVSIIATNLIHWYQQKPGQPPKLLIYHASNLETGVPARFSGSGSRTDFTLTIDPVEKDDVAIYYCLQSRKIPPTFGGGTKLEIK | 10.4 | 1.99 | 0.75 | 16.7 | 9.34 | 35.1 | 29.7 | 39.2 | 0.973 ratio to isotype control |  | 0.132 ratio to isotype control | 0.167 ratio to isotype control | 1.6 |  |  |  | 4.3 |  |  | > 1000
